Measured values taken from patent US20220056101A1 (published 2022).

Columns and labels:
[1] = biological target: T1, Epstein-Barr virus latent membrane protein 2 (LMP2) peptide on HLA-A24 (human); assay: killing
T1 peptide: SSCSSCPLSK

[2] = biological target: T2, Epstein-Barr virus latent membrane protein 2 (LMP2) peptide on HLA-A11 (human); assay: killing
T2 peptide: SSCSSCPLSK

B1: TCR-NPC-A11-003 (TCR, V domains shown)
Valpha: GIQVEQSPPDLILQEGANSTLRCNFSDSVNNLQWFHQNPWGQLINLFYIPSGTKQNGRLSATTVATERYSLLYISSSQTTDSGVYFCAVVNNNDMRFGAGTRLTVKP
Vbeta: DTEVTQTPKHLVMGMTNKKSLKCEQHMGHRAMYWYKQKAKKPPELMFVYSYEKLSINESVPSRFSPECPNSSLLNLHLHALQPEDSALYLCASSPGRWYEQFFGPGTRLTVL
binding result [1]: no recognition | binding result [2]: recognises

B2: TCR-NPC-A11-125 (TCR, V domains shown)
Valpha: GIQVEQSPPDLILQEGANSTLRCNFSDSVNNLQWFHQNPWGQLINLFYIPSGTKQNGRLSATTVATERYSLLYISSSQTTDSGVYFCAVLNNNDMRFGAGTRLTVKP
Vbeta: DTEVTQTPKHLVMGMTNKKSLKCEQHMGHRAMYWYKQKAKKPPELMFVYSYEKLSINESVPSRFSPECPNSSLLNLHLHALQPEDSALYLCASSQGRWYEAFFGQGTRLTVV
binding result [1]: no recognition | binding result [2]: recognises
